How the values were obtained:
Assay in all cases: cell-based or functional assay
[1] = target: LRP1 receptors on GM244 human Pompe fibroblasts (human) (UniProt Q07954)
LRP = target: LRP
[2] = target: mannose-6-phosphate receptor on GM244 human fibroblasts (human) (UniProt O00264)
Sequence of mannose-6-phosphate receptor on GM244 human fibroblasts (human) (O00264 whole entry): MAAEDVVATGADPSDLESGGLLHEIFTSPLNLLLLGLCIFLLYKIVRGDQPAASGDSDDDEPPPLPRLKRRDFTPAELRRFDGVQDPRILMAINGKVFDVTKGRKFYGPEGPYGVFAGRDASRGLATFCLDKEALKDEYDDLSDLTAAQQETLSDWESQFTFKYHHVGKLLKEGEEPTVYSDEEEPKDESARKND

Sequence of LRP1 receptors on GM244 human Pompe fibroblasts (human) (Q07954 20-4544): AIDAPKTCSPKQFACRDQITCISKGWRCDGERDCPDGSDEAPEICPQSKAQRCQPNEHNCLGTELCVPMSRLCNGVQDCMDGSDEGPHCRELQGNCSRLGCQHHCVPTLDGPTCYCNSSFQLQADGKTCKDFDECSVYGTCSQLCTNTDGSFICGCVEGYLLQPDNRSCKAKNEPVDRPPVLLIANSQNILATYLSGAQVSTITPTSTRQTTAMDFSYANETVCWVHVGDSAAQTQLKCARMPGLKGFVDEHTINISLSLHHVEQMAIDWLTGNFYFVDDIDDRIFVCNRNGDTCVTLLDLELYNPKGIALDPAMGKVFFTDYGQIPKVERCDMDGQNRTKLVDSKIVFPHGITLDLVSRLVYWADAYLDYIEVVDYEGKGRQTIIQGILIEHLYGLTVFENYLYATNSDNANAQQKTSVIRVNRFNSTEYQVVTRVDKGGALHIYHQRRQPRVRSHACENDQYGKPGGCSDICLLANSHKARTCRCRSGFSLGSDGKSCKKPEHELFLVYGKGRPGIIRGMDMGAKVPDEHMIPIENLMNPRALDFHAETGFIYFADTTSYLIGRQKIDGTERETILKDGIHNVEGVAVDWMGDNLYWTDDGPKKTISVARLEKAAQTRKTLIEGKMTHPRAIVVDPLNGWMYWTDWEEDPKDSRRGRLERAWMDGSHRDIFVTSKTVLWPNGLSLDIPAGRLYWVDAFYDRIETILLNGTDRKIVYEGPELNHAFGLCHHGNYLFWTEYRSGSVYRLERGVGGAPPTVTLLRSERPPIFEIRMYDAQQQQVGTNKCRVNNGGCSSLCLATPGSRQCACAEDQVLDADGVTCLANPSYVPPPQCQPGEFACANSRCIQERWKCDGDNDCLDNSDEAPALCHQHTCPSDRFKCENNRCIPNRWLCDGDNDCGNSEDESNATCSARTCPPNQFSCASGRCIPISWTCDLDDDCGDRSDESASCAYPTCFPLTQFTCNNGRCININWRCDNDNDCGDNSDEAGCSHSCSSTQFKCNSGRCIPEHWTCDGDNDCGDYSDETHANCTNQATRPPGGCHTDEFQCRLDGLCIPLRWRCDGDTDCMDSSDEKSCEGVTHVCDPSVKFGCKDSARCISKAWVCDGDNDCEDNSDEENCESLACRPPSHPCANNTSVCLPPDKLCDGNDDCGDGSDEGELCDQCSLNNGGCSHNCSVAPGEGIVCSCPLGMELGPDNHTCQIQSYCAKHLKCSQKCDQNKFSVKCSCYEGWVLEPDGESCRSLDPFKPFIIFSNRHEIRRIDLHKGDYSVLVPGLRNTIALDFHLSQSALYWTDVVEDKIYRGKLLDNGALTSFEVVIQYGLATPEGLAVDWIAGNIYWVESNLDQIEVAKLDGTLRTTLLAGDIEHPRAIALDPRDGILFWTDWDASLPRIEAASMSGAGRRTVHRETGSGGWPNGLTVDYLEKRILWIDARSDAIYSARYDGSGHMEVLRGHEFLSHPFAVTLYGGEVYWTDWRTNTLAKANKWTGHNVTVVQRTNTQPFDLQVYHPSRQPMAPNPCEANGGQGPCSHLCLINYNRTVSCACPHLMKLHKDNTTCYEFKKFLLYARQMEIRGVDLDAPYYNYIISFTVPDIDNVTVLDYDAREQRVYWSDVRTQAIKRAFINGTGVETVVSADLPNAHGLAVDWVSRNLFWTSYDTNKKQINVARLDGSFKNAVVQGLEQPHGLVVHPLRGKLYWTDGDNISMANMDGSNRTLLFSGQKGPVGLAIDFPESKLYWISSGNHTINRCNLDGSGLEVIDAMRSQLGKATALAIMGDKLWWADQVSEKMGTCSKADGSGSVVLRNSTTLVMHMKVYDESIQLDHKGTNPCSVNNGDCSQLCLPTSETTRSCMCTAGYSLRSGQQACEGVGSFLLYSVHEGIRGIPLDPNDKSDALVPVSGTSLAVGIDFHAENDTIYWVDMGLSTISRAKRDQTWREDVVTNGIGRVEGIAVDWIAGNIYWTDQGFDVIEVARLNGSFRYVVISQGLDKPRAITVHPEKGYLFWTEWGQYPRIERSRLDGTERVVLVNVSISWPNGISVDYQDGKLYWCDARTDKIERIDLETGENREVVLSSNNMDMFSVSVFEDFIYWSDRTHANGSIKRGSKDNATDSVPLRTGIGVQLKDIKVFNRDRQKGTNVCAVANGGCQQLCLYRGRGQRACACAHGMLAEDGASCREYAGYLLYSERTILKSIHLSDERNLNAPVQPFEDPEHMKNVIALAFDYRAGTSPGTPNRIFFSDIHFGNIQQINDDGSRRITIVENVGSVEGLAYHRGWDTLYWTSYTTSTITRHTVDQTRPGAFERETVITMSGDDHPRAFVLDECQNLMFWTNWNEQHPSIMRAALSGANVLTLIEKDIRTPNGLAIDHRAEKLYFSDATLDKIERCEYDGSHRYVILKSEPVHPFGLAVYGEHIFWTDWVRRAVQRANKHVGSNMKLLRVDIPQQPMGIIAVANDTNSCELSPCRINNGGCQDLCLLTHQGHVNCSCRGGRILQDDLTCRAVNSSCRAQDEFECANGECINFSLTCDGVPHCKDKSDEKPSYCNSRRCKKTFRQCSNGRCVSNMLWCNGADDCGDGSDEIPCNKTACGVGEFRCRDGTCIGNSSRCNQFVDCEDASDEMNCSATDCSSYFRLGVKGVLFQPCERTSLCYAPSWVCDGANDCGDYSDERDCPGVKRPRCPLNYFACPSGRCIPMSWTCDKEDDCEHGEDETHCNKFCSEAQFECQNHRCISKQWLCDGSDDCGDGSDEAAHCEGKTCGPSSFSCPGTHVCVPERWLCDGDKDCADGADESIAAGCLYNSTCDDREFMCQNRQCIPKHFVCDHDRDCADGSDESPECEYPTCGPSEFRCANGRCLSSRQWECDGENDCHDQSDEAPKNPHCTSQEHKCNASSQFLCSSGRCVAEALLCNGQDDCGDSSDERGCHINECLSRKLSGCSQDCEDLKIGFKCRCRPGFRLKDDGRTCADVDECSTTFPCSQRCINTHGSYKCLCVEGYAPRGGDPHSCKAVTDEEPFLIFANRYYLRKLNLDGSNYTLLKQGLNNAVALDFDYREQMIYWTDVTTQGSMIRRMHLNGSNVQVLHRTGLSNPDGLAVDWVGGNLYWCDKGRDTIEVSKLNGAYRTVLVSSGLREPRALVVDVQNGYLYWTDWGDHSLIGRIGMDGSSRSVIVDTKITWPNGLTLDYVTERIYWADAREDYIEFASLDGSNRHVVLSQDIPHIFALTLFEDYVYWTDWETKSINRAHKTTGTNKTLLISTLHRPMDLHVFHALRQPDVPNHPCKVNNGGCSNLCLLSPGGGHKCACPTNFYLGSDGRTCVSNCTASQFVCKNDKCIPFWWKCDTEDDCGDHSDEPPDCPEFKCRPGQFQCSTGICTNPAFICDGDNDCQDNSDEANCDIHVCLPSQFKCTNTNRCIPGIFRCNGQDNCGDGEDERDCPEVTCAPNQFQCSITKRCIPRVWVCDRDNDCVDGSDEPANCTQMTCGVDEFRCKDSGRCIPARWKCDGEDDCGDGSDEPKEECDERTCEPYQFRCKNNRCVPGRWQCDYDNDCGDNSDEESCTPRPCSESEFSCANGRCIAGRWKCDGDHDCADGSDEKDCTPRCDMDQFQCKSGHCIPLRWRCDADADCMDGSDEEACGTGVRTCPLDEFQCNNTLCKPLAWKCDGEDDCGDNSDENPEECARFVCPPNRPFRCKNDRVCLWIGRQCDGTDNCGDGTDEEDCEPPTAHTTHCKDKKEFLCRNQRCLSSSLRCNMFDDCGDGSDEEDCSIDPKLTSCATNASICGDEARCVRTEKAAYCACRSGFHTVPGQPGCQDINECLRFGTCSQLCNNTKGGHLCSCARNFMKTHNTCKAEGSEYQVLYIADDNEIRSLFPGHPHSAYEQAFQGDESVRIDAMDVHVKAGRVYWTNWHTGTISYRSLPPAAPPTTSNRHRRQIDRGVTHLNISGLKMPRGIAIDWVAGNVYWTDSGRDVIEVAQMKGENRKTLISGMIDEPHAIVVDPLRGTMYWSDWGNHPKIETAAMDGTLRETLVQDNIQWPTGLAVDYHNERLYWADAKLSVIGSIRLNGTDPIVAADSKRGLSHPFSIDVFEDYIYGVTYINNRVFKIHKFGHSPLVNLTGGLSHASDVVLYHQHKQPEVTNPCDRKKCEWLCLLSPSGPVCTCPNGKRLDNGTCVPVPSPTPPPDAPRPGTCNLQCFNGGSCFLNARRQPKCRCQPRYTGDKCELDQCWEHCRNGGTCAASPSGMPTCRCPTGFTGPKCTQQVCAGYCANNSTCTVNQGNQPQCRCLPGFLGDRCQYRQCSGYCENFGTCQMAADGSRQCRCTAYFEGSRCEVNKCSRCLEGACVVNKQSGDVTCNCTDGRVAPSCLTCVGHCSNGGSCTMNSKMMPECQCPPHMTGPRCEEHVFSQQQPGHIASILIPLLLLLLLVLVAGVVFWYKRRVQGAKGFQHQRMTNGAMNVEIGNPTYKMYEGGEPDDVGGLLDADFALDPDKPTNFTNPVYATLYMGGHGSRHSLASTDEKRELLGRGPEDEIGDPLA

## RAP-GAA fusion (human RAP fused N-terminally to human alpha-glucosidase)
[1]
  Kuptake, uptake into GM244 fibroblasts measured by GAA enzyme activity: 19 nM
  percent of RAP-GAA uptake into GM244 fibroblasts inhibited by free RAP: 90%
  uptake into GM244 fibroblasts relative to recombinant GAA (Vmax ratio): 60 fold
  uptake into GM244 fibroblasts relative to recombinant GAA at 10 nM: 25 fold
LRP
  Kuptake ratio (fusion/enzyme), RAP-GAA against rhGAA, fibroblast (ratio (fusion/enzyme)): 25
  Uptake ratio (fusion/enzyme), RAP-GAA against rhGAA, C2C12 myoblast, 5 nM (ratio (fusion/enzyme)): 18
  Uptake ratio (fusion/enzyme), RAP-GAA against rhGAA, C6 glioma, 5 nM (ratio (fusion/enzyme)): 8
  Uptake ratio (fusion/enzyme), RAP-GAA against rhGAA, fibroblast, 5 nM (ratio (fusion/enzyme)): 9
  Uptake ratio (fusion/enzyme), RAP-GAA against rhGAA, fibroblast, 50 nM (ratio (fusion/enzyme)): 37
  Uptake ratio (fusion/enzyme), RAP-GAA against rhGAA, fibroblast, saturation (ratio (fusion/enzyme)): 70
[2]
  percent of RAP-GAA uptake into GM244 fibroblasts inhibited by mannose 6-phosphate: 20%
